Laboratory results: paper PMC11870435 (2025)

Biological target: H3HK68 full length hemagglutinin WT trimer (A/Hong Kong/1/1968(H3N2)) (Influenza A virus A/Hong …, UniProt Q91MA7)
Assay: BLI

Chain of H3HK68 full length hemagglutinin WT trimer (A/Hong Kong/1/1968(H3N2)) (Q91MA7 17-566, one chain of several): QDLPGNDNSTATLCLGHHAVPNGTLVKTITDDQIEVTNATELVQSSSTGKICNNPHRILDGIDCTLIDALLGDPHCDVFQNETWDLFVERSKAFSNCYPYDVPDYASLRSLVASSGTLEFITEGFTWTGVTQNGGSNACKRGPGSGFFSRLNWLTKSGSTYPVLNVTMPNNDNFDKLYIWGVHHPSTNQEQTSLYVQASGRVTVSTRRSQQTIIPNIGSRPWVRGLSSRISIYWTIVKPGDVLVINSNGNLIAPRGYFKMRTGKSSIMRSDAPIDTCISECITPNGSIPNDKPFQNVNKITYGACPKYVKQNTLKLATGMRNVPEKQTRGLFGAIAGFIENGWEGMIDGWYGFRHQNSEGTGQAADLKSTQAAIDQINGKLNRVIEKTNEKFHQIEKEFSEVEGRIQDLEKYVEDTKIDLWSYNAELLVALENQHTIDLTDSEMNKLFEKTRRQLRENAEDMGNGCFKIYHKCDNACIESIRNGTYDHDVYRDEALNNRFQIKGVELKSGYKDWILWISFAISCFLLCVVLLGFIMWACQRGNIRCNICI

B1: F045-92 IgG (H3 RBS-specific antibody) (antibody, V domains shown)
VH: EVQLVESGAEVKKPGSSVKVSCRASGTFYKYAINWVRQAPGQGLEWMGGIIPFFGTTNYAQKFQGRLTITADGSTNTAYMQLDSLRSEDTAVYYCAGPSITESHYCLDCAAKDYYYGLDVWGQGTTVTVSS
VL: not shown
- Kd: 10 nM
